# From paper PMC9482650, “Quantitative fragmentomics allow affinity mapping of interactomes” (Nature Communications, 2022)
# T1: MPDZ_12, O75970
# T1 sequence (O75970 1857-1958, limits assumed, looked up): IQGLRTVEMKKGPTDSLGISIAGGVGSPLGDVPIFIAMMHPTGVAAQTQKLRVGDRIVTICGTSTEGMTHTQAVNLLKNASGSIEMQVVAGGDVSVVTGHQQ
# T2: RHPN1, Q8TCX5
# T2 sequence (Q8TCX5 508-602, limits assumed, looked up): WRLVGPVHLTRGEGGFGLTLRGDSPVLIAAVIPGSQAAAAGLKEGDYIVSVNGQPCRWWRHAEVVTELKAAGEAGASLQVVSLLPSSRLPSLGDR
# T3: MPDZ_5, O75970
# T3 sequence (O75970 695-796, limits assumed, looked up): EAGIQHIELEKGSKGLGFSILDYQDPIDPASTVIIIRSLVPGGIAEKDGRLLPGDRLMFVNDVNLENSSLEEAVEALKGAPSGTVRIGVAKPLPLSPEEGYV
# T4: PDZD2_2, O15018
# T4 sequence (O15018 329-429, limits assumed, looked up): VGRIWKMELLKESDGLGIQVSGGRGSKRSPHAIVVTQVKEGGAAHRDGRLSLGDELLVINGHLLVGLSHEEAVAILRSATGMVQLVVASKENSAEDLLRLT
# T5: DLG3_3, Q92796
# T5 sequence (Q92796 374-475, limits assumed, looked up): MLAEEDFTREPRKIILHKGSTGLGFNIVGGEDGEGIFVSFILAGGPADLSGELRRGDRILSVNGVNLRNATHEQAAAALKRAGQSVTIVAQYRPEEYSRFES
# T6: RAPGEF6, Q8TEU7
# T6 sequence (Q8TEU7 525-625, limits assumed, looked up): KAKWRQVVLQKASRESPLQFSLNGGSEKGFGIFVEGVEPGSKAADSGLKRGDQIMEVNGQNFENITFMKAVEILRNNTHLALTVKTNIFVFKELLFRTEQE
# T7: FRMPD1, Q5SYB0
# T7 sequence (Q5SYB0 52-145, limits assumed, looked up): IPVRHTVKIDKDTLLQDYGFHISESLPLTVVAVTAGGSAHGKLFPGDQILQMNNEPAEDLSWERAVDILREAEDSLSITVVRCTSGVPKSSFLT
# T8: GRIP1_2, Q9Y3R0
# T8 sequence (Q9Y3R0 145-248, limits assumed, looked up): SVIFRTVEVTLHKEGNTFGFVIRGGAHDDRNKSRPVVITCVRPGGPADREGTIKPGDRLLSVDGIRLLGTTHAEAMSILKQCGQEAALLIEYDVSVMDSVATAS
# T9: PTPN13_1, Q12923
# T9 sequence (Q12923 1088-1188, limits assumed, looked up): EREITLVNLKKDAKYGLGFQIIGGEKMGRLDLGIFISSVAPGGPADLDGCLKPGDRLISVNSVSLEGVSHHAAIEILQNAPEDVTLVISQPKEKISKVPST
# T10: DFNB31_3, Q9P202
# T10 sequence (Q9P202 811-907, limits assumed, looked up): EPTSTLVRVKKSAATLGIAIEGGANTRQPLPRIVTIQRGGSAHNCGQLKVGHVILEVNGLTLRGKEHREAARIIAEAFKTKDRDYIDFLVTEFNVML
# T11: LNX2_3, Q8N448
# T11 sequence (Q8N448 463-564, limits assumed, looked up): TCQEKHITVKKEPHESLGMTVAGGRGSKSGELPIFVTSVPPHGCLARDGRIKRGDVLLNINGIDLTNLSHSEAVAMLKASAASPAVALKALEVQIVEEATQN
# T12: APBA2_1, Q99767
# T12 sequence (Q99767 563-664, limits assumed, looked up): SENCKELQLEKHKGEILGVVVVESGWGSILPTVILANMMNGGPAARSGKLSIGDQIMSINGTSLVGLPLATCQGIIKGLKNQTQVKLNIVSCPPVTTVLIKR
# Assays:
# Assay in all cases: holdup assay
# Parameters in all cases: key: below the threshold = too weak to quantify, mostly under pKd 3.1 to 4
# GRIP2_7, Q9C0E4 = biological target: GRIP2_7, Q9C0E4
# GRIP2_7, Q9C0E4, sequence (Q9C0E4 934-1023): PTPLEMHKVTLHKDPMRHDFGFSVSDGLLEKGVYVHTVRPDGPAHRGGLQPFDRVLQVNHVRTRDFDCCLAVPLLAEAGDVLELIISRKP
# MPDZ_12, O75970 = biological target: T1, MPDZ_12, O75970
# DLG2_2, Q15700 = biological target: DLG2_2, Q15700
# DLG2_2, Q15700, sequence (Q15700 189-283): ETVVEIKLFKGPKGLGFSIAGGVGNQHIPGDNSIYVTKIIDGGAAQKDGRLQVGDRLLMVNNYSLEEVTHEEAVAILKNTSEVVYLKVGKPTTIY
# GRIP2_3, Q9C0E4 = biological target: GRIP2_3, Q9C0E4
# GRIP2_3, Q9C0E4, sequence (Q9C0E4 238-339): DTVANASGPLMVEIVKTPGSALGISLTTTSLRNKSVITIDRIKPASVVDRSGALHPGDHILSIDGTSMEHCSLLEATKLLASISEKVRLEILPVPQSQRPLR
# RHPN1, Q8TCX5 = biological target: T2, RHPN1, Q8TCX5
# NHERF4_1, Q86UT5-2 = biological target: NHERF4_1, Q86UT5-2
# NHERF4_1, Q86UT5-2, sequence (Q86UT5 other isoform, or with tags, fused parts or gaps): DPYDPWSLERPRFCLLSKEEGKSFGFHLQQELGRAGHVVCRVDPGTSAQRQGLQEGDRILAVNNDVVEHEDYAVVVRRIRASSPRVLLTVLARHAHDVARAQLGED
# MPDZ_5, O75970 = biological target: T3, MPDZ_5, O75970
# PDZD2_2, O15018 = biological target: T4, PDZD2_2, O15018
# FRMPD2_3, Q68DX3 = biological target: FRMPD2_3, Q68DX3
# FRMPD2_3, Q68DX3, sequence (Q68DX3 1073-1166): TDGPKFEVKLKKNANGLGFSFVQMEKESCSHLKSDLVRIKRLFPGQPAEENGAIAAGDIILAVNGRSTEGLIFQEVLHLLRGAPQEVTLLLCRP
# DLG3_3, Q92796 = biological target: T5, DLG3_3, Q92796
# RAPGEF6, Q8TEU7 = biological target: T6, RAPGEF6, Q8TEU7
# MAGI2_2, Q86UL8 = biological target: MAGI2_2, Q86UL8
# MAGI2_2, Q86UL8, sequence (Q86UL8 410-522): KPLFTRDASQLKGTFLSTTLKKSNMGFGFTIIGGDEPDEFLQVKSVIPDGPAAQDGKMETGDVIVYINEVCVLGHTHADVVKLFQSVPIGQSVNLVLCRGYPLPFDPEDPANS
# FRMPD1, Q5SYB0 = biological target: T7, FRMPD1, Q5SYB0
# GRIP1_2, Q9Y3R0 = biological target: T8, GRIP1_2, Q9Y3R0
# LNX1_2, Q8TBB1 = biological target: LNX1_2, Q8TBB1
# LNX1_2, Q8TBB1, sequence (Q8TBB1 371-470): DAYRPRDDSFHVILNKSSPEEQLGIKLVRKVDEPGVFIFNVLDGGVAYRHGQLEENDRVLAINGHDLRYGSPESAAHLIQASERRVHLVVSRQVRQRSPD
# PTPN13_1, Q12923 = biological target: T9, PTPN13_1, Q12923
# AHNAK1, Q09666 = biological target: AHNAK1, Q09666
# AHNAK1, Q09666, sequence (Q09666 4-100): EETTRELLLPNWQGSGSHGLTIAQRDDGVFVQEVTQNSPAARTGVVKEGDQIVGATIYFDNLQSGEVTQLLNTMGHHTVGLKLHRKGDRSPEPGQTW
# DFNB31_3, Q9P202 = biological target: T10, DFNB31_3, Q9P202
# LNX2_3, Q8N448 = biological target: T11, LNX2_3, Q8N448
# Inadl_8, Q8NI35 = biological target: Inadl_8, Q8NI35
# Inadl_8, Q8NI35, sequence (Q8NI35 1425-1530): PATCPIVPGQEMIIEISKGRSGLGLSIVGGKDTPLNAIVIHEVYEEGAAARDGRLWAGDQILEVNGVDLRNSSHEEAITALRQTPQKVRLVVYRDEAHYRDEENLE
# NOS1, P29475 = biological target: NOS1, P29475
# NOS1, P29475, sequence (P29475 9-101): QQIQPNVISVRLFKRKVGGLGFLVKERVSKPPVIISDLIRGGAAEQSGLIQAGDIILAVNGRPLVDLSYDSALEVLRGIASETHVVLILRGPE
# APBA2_1, Q99767 = biological target: T12, APBA2_1, Q99767
# SNX27, Q96L92 = biological target: SNX27, Q96L92
# HTRA2, O43464 = biological target: HTRA2, O43464
# HTRA2, O43464, sequence (O43464 355-458): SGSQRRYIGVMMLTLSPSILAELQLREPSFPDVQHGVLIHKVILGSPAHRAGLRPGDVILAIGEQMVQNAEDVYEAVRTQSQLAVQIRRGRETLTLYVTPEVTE
# [1] = plain residues with an end cap or a label only (N-terminal biotin on a linker: ado-ado)
# [2] = modified: phospho on T at position -2 from the C-terminal residue
binder,measurement,setting,value
"RRLPGKETMA [GRIK2, Q13002]",pKd,"GRIP2_7, Q9C0E4; [1]",below the threshold
same,pKd,"MPDZ_12, O75970; [1]",below the threshold
same,pKd,"DLG2_2, Q15700; [1]",below the threshold
same,pKd,"GRIP2_3, Q9C0E4; [1]",below the threshold
same,pKd,"RHPN1, Q8TCX5; [1]",below the threshold
same,pKd,"NHERF4_1, Q86UT5-2; [1]",below the threshold
same,pKd,"MPDZ_5, O75970; [1]",below the threshold
same,pKd,"PDZD2_2, O15018; [1]",below the threshold
same,pKd,"FRMPD2_3, Q68DX3; [1]",below the threshold
same,pKd,"DLG3_3, Q92796; [1]",below the threshold
same,pKd,"RAPGEF6, Q8TEU7; [1]",3.53
same,pKd,"MAGI2_2, Q86UL8; [1]",below the threshold
same,pKd,"FRMPD1, Q5SYB0; [1]",below the threshold
same,pKd,"GRIP1_2, Q9Y3R0; [1]",below the threshold
same,pKd,"LNX1_2, Q8TBB1; [1]",below the threshold
same,pKd,"PTPN13_1, Q12923; [1]",below the threshold
same,pKd,"AHNAK1, Q09666; [1]",below the threshold
same,pKd,"DFNB31_3, Q9P202; [1]",below the threshold
same,pKd,"LNX2_3, Q8N448; [1]",below the threshold
same,pKd,"Inadl_8, Q8NI35; [1]",below the threshold
same,pKd,"NOS1, P29475; [1]",below the threshold
same,pKd,"APBA2_1, Q99767; [1]",below the threshold
same,pKd,"SNX27, Q96L92; [1]",below the threshold
same,pKd,"HTRA2, O43464; [1]",below the threshold
"SKPTRRETEV [HPV35-E6_-2P, P27228]",pKd,"GRIP2_7, Q9C0E4; [2]",below the threshold
same,pKd,"MPDZ_12, O75970; [2]",below the threshold
same,pKd,"DLG2_2, Q15700; [2]",3.51
same,pKd,"GRIP2_3, Q9C0E4; [2]",below the threshold
same,pKd,"RHPN1, Q8TCX5; [2]",below the threshold
same,pKd,"NHERF4_1, Q86UT5-2; [2]",3.6
same,pKd,"MPDZ_5, O75970; [2]",below the threshold
same,pKd,"PDZD2_2, O15018; [2]",below the threshold
same,pKd,"FRMPD2_3, Q68DX3; [2]",below the threshold
same,pKd,"DLG3_3, Q92796; [2]",below the threshold
same,pKd,"RAPGEF6, Q8TEU7; [2]",below the threshold
same,pKd,"MAGI2_2, Q86UL8; [2]",below the threshold
same,pKd,"FRMPD1, Q5SYB0; [2]",below the threshold
same,pKd,"GRIP1_2, Q9Y3R0; [2]",below the threshold
same,pKd,"LNX1_2, Q8TBB1; [2]",below the threshold
same,pKd,"PTPN13_1, Q12923; [2]",below the threshold
same,pKd,"AHNAK1, Q09666; [2]",below the threshold
same,pKd,"DFNB31_3, Q9P202; [2]",3.95
same,pKd,"LNX2_3, Q8N448; [2]",below the threshold
same,pKd,"Inadl_8, Q8NI35; [2]",below the threshold
same,pKd,"NOS1, P29475; [2]",below the threshold
same,pKd,"APBA2_1, Q99767; [2]",below the threshold
same,pKd,"SNX27, Q96L92; [2]",3.59
same,pKd,"HTRA2, O43464; [2]",below the threshold
"RRRESYSTTV [EVI5, O60447]",pKd,"GRIP2_7, Q9C0E4; [1]",below the threshold
same,pKd,"MPDZ_12, O75970; [1]",below the threshold
same,pKd,"DLG2_2, Q15700; [1]",5.54
same,pKd,"GRIP2_3, Q9C0E4; [1]",below the threshold
same,pKd,"RHPN1, Q8TCX5; [1]",below the threshold
same,pKd,"NHERF4_1, Q86UT5-2; [1]",below the threshold
same,pKd,"MPDZ_5, O75970; [1]",below the threshold
same,pKd,"PDZD2_2, O15018; [1]",4.7
same,pKd,"FRMPD2_3, Q68DX3; [1]",below the threshold
same,pKd,"DLG3_3, Q92796; [1]",4.28
same,pKd,"RAPGEF6, Q8TEU7; [1]",below the threshold
same,pKd,"MAGI2_2, Q86UL8; [1]",5.15
same,pKd,"FRMPD1, Q5SYB0; [1]",below the threshold
same,pKd,"GRIP1_2, Q9Y3R0; [1]",below the threshold
same,pKd,"LNX1_2, Q8TBB1; [1]",3.99
same,pKd,"PTPN13_1, Q12923; [1]",below the threshold
same,pKd,"AHNAK1, Q09666; [1]",below the threshold
same,pKd,"DFNB31_3, Q9P202; [1]",below the threshold
same,pKd,"LNX2_3, Q8N448; [1]",below the threshold
same,pKd,"Inadl_8, Q8NI35; [1]",4.06
same,pKd,"NOS1, P29475; [1]",below the threshold
same,pKd,"APBA2_1, Q99767; [1]",below the threshold
same,pKd,"SNX27, Q96L92; [1]",4.79
same,pKd,"HTRA2, O43464; [1]",below the threshold
"LRSPRTPSEV [OR10G3, Q8NGC4]",pKd,"GRIP2_7, Q9C0E4; [1]",below the threshold
same,pKd,"MPDZ_12, O75970; [1]",3.5
same,pKd,"DLG2_2, Q15700; [1]",3.55
same,pKd,"GRIP2_3, Q9C0E4; [1]",below the threshold
same,pKd,"RHPN1, Q8TCX5; [1]",below the threshold
same,pKd,"NHERF4_1, Q86UT5-2; [1]",3.63
same,pKd,"MPDZ_5, O75970; [1]",3.82
same,pKd,"PDZD2_2, O15018; [1]",3.95
same,pKd,"FRMPD2_3, Q68DX3; [1]",below the threshold
same,pKd,"DLG3_3, Q92796; [1]",below the threshold
same,pKd,"RAPGEF6, Q8TEU7; [1]",below the threshold
same,pKd,"MAGI2_2, Q86UL8; [1]",4.27
same,pKd,"FRMPD1, Q5SYB0; [1]",below the threshold
same,pKd,"GRIP1_2, Q9Y3R0; [1]",below the threshold
same,pKd,"LNX1_2, Q8TBB1; [1]",below the threshold
same,pKd,"PTPN13_1, Q12923; [1]",3.71
same,pKd,"AHNAK1, Q09666; [1]",below the threshold
same,pKd,"DFNB31_3, Q9P202; [1]",3.79
same,pKd,"LNX2_3, Q8N448; [1]",below the threshold
same,pKd,"Inadl_8, Q8NI35; [1]",4.18
same,pKd,"NOS1, P29475; [1]",3.76
same,pKd,"APBA2_1, Q99767; [1]",below the threshold
same,pKd,"SNX27, Q96L92; [1]",below the threshold
same,pKd,"HTRA2, O43464; [1]",below the threshold
